In patent US20060199780A1:

Legend:
Experiment in all cases: cell-based or functional assay
Fas (human) = Fas (human) (UniProt P25445)
[1] = target: B7-1 (CD28 ligand) on mouse lymph node accessory cells (mouse) (UniProt Q00609)
[2] = target: B7-2 (CD28 ligand) on mouse lymph node accessory cells (mouse) (UniProt P42082)
UniProt P42082, sequence (P42082 24-309): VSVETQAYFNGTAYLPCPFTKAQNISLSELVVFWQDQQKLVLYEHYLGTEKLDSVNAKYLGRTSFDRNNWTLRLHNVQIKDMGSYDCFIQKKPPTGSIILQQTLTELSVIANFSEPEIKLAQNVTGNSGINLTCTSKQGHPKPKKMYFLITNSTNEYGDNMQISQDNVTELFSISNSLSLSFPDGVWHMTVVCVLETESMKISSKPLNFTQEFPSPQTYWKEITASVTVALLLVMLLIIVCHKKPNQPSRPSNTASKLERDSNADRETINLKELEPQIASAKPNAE

UniProt P25445, sequence (P25445 26-335): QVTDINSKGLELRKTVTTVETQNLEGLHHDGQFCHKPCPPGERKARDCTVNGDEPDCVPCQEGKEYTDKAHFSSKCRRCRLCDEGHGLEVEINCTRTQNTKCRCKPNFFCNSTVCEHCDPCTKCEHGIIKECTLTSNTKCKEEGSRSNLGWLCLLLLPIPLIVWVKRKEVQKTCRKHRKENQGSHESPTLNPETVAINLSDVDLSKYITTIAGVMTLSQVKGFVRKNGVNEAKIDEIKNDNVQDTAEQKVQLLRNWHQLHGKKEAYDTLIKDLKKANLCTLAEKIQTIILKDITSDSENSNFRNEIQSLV
UniProt Q00609, sequence (Q00609 38-306): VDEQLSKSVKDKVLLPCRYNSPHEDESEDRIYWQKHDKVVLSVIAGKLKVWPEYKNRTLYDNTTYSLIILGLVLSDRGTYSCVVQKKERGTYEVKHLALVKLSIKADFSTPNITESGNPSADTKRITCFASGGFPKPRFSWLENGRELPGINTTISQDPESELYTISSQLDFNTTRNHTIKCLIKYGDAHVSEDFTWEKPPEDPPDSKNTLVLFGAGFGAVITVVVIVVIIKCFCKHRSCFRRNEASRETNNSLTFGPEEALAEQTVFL

Substance	viability of Jurkat Neo control clones after Fas antibody at 10 ng/ml (Fas (human))	viability of the activated T cells at 72 hrs [1]	viability of the activated T cells at 72 hrs [2]
CH-11 anti-Fas monoclonal antibody (Panvera)	< 10%	–	–
CTLA4Ig (from Repligen) (Fc fusion)	–	20%	20%
